In US20210179666A1 (REGENTS OF THE UNIVERSITY OF MINNESOTA, published 2021):
Where two headings read alike, the source gives them in different places. Values belong to the binder of their own block, whether it stands above or below them. Numbered stars: 1 amine (or outer) side, 2 acyl side, 3 side chain; on linkers, the order of the positions; unused ones are H or OH. Square brackets hold non-standard residues; d marks the D form. N(2-Aminoethyl)Gly = O=C(CN(CCN[*:3])[*:1])[*:2]; Gly(N-(CH2)3-guanidino) = N=C(N)NCCCNCC(=O)O; Nphe = O=C(O)CNCc1ccccc1; Dap = NC[C@H](N)C(=O)O; Sar = CNCC(=O)O

Experiments:
[1] = target: T1, mouse melanocortin 3 receptor (mouse, UniProt P33033 1-323); assay: cell-based or functional assay
[2] = target: T2, mouse melanocortin 5 receptor (mouse, UniProt P41149 1-325); assay: cell-based or functional assay
[3] = target: T3, mouse melanocortin 4 receptor (mouse, UniProt P56450 1-332); assay: cell-based or functional assay
[4] = target: T4, mouse melanocortin 1 receptor (mouse, UniProt Q01727 1-315); assay: cell-based or functional assay
[5] = target: T2, mouse melanocortin 5 receptor; assay: 125I-NDP-MSH competition, HEK293 cells
[6] = target: T4, mouse melanocortin 1 receptor; assay: 125I-NDP-MSH competition, HEK293 cells
[7] = target: T1, mouse melanocortin 3 receptor; assay: 125I-NDP-MSH competition, HEK293 cells
[8] = target: T3, mouse melanocortin 4 receptor; assay: 125I-NDP-MSH competition, HEK293 cells
[9] = target: T5, human melanocortin 4 receptor (human, UniProt P32245 1-332); assay: 125I-NDP-MSH competition, HEK293 cells
T5 construct: whole, on cells; the assays used the receptor on HEK293 cells; also called hMC4R

[10] = target: T1, mouse melanocortin 3 receptor; assay: 125I-NDP-MSH competition; fold vs SEQ ID NO: 2 control
[11] = target: T3, mouse melanocortin 4 receptor; assay: as above
[12] = target: T4, mouse melanocortin 1 receptor; assay: as above
[13] = target: T5, human melanocortin 4 receptor; assay: as above
[14] = target: T1, mouse melanocortin 3 receptor; assay: cell-based or functional assay; remark: listed apart in the source
[15] = target: T2, mouse melanocortin 5 receptor; assay: cell-based or functional assay; remark: listed apart in the source
[16] = target: T3, mouse melanocortin 4 receptor; assay: cell-based or functional assay; remark: listed apart in the source
[17] = target: T4, mouse melanocortin 1 receptor; assay: cell-based or functional assay; remark: listed apart in the source
[18] = target: T5, human melanocortin 4 receptor; assay: cell-based or functional assay
[19] = target: T2, mouse melanocortin 5 receptor; assay: 125I-NDP-MSH competition; fold vs SEQ ID NO: 2 control
[20] = target: T5, human melanocortin 4 receptor; assay: 125I-NDP-MSH competition; fold vs SEQ ID NO: 1 control
[21] = target: T3, mouse melanocortin 4 receptor; assay: as above

T3 sequence (P56450 whole entry): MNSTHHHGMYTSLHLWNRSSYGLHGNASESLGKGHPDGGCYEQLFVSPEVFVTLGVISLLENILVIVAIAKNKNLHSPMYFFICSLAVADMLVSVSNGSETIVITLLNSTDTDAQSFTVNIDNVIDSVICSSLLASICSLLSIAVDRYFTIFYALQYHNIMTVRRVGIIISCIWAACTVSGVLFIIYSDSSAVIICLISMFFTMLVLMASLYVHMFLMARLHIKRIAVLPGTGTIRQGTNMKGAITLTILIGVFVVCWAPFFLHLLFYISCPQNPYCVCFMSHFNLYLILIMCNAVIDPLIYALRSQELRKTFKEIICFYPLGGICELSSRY
T1 sequence (P33033 whole entry): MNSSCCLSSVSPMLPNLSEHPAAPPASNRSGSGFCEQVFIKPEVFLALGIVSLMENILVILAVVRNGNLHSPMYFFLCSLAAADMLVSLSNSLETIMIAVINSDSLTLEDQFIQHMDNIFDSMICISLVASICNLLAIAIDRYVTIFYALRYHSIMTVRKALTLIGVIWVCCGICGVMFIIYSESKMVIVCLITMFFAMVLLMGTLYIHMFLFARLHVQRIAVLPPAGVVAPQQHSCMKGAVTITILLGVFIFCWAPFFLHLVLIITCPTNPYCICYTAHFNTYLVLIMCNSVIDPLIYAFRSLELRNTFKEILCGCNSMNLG
T5 sequence (P32245 whole entry): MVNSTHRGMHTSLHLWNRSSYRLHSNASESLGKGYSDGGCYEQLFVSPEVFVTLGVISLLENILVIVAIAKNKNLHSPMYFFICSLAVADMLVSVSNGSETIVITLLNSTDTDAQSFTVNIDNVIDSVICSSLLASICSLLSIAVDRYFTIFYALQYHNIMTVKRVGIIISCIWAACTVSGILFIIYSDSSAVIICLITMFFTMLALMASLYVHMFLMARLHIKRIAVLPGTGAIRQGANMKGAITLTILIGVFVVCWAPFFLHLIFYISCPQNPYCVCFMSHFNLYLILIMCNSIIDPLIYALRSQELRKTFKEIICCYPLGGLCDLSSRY
T2 sequence (P41149 whole entry): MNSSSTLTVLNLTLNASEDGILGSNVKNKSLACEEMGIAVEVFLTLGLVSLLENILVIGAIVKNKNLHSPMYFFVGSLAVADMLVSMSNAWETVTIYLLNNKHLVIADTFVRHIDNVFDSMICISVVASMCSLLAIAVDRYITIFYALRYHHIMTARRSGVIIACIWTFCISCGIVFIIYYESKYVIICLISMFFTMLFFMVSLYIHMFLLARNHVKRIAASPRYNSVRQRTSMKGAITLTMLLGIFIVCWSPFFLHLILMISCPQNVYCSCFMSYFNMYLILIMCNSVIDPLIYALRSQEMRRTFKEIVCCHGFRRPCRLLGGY
T4 sequence (Q01727 whole entry): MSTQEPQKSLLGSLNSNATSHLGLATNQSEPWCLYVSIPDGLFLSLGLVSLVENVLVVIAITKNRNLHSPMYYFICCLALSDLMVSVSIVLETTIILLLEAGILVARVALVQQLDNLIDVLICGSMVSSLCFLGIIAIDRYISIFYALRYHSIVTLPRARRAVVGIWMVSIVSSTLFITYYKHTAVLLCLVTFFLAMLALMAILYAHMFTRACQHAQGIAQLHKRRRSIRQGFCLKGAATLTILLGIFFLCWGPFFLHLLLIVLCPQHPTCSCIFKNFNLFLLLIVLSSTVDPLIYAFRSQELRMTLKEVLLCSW

EC50 (cAMP agonist) [1]: > 100 µM
pA2 (Schild analysis, agonist NDP-MSH, cAMP) [1]: 5.6
EC50 (cAMP agonist) [2]: > 100 µM
pA2 (Schild analysis, agonist NDP-MSH, cAMP) [3]: 6.1
EC50 (cAMP agonist) [4]: > 100 µM
Binder: PRFFXAFP (head-to-tail cyclic; Dap at 5; NAla (N-methylglycine) at 6; DPro at 8) [MDE8-108-6c]

EC50 (cAMP agonist) [1]: > 100 µM
pA2 (Schild analysis, agonist NDP-MSH, cAMP) [1]: 5.9
EC50 (cAMP agonist) [2]: > 100 µM
EC50 (cAMP agonist) [4]: > 100 µM
B1: MDE8-108-3c (peptide)
peptide: PRFFXAFP
modifications: head-to-tail cyclic; NArg (N-(3-guanidino-propyl)-glycine) at 2; Dap at 5; DPro at 8

EC50 (cAMP agonist) [1]: > 100 µM
pA2 (Schild analysis, agonist NDP-MSH, cAMP) [1]: 6.9
EC50 (cAMP partial agonist) [2]: 0.55 µM
Partial Agonist, percent of NDP-MSH (cAMP) [2]: 70%
EC50 (cAMP partial agonist) [4]: 0.11 µM
Partial Agonist, percent of NDP-MSH (cAMP) [4]: 80%
Binder: PRFFXAFP (head-to-tail cyclic; NPhe (N-benzylglycine) at 3; Dap at 5; DPro at 8) [MDE9-32c]

EC50 (cAMP agonist) [1]: > 100 µM
Inverse Agonist, percent decrease from basal (cAMP) [2]: -10%
pA2 (Schild analysis, agonist NDP-MSH, cAMP) [3]: 6.6
EC50 (cAMP agonist) [4]: > 100 µM
Binder: PRFFXAFP (head-to-tail cyclic; Dap at 5; NPhe (N-benzylglycine) at 7; DPro at 8) [MDE8-108-7c]

pA2 (Schild analysis, agonist NDP-MSH, cAMP) [3]: < 5.5
EC50 (cAMP partial agonist) [4]: 3.1 µM
Partial Agonist, percent of NDP-MSH (cAMP) [4]: 50%
B2: MDE7-26-1c (peptide)
peptide: cyclo(P[Gly(N-(CH2)3-guanidino)]FFNAF[dP])
SMILES: C[C@@H]1NC(=O)[C@H](CC(N)=O)NC(=O)[C@H](Cc2ccccc2)NC(=O)[C@H](Cc2ccccc2)NC(=O)CN(CCCNC(=N)N)C(=O)[C@@H]2CCCN2C(=O)[C@H]2CCCN2C(=O)[C@H](Cc2ccccc2)NC1=O

pA2 (Schild analysis, agonist NDP-MSH, cAMP) [3]: < 5.5
EC50 (cAMP agonist) [4]: 0.24 µM
Binder: cyclo(PR[Nphe]FNAF[dP]) [MDE9-77c]

percent maximal stimulatory response at 100 µM (cAMP) [1]: 60%
pA2 (Schild analysis, agonist NDP-MSH, cAMP) [3]: < 5.5
percent maximal stimulatory response at 100 µM (cAMP) [4]: 85%
Binder: cyclo(PRFFNA[Nphe][dP]) [MDE7-26-5c]

pA2 (Schild analysis, agonist NDP-MSH, cAMP) [3]: < 5.5
EC50 (cAMP agonist) [4]: 1 µM
B3: MDE7-26-4c (peptide)
peptide: cyclo(PRFFN[Sar]F[dP])
SMILES: CN1CC(=O)N[C@@H](Cc2ccccc2)C(=O)N2CCC[C@@H]2C(=O)N2CCC[C@H]2C(=O)N[C@@H](CCCNC(=N)N)C(=O)N[C@@H](Cc2ccccc2)C(=O)N[C@@H](Cc2ccccc2)C(=O)N[C@@H](CC(N)=O)C1=O

pA2 (Schild analysis, agonist NDP-MSH, cAMP) [3]: 8.4
EC50 (cAMP partial agonist) [4]: 5.6 µM
Partial Agonist, percent of NDP-MSH (cAMP) [4]: 70%
Binder: cyclo(PRF[Nphe]NAF[dP]) [MDE9-88c]

IC50 [5]: 1.7 µM
IC50 [6]: 5.2 µM
pA2 (Schild analysis, agonist NDP-MSH, cAMP) [1]: 6.5
percent maximal stimulatory response at 100 µM (cAMP) [1]: 20%
Inverse Agonist, percent decrease from basal (cAMP) [2]: -10%
percent maximal stimulatory response at 100 µM (cAMP) [4]: 36%
B4: 2 (MDE 6-82-1c) (peptide)
peptide: PRFFXAFP
modifications: head-to-tail cyclic; Dap (diaminopropionic acid) at 5; DPro at 8
notes: Dap5 parent scaffold; assayed as TFA salt; also called Compound 2; c[Pro-Arg-Phe-Phe-Dap-Ala-Phe-DPro]

IC50 [7]: 49 µM
IC50 [8]: 10 µM
IC50 [6]: 33 µM
IC50 [9]: 15.7 µM
Fold Diff [10]: 15 fold
Fold Diff [11]: 5200 fold
Fold Diff [12]: 6 fold
Fold Diff [13]: 2100 fold
pA2 (Schild analysis, agonist NDP-MSH, cAMP) [14]: < 5
percent maximal stimulatory response at 100 µM (cAMP) [14]: 29%
EC50 (cAMP agonist) [15]: > 100 µM
pA2 (Schild analysis, agonist NDP-MSH, cAMP) [16]: < 5
percent maximal stimulatory response at 100 µM (cAMP) [16]: 42%
EC50 (cAMP agonist) [17]: 4 µM
pA2 (Schild analysis, agonist NDP-MSH, cAMP) [18]: < 5
B5: ZMK 3-20 (peptide)
peptide: cyclo(PCFF[Dap]AF[dP])
notes: Arg111Cys SNP in the Dap scaffold; also called c[Pro-Cys-Phe-Phe-Dap-Ala-Phe-DPro]

IC50 [7]: 15 µM
IC50 [5]: 12 µM
IC50 [8]: 1 µM
IC50 [6]: 25 µM
IC50 [9]: 2.7 µM
Fold Diff [10]: 5 fold
Fold Diff [19]: 7 fold
Fold Diff [11]: 500 fold
Fold Diff [12]: 5 fold
Fold Diff [13]: 400 fold
EC50 (cAMP agonist) [14]: > 100 µM
pA2 (Schild analysis, agonist NDP-MSH, cAMP) [14]: 5.4
EC50 (cAMP agonist) [15]: > 100 µM
EC50 (cAMP agonist) [16]: > 100 µM
pA2 (Schild analysis, agonist NDP-MSH, cAMP) [16]: 6
percent maximal stimulatory response at 100 µM (cAMP) [17]: 56%
pA2 (Schild analysis, agonist NDP-MSH, cAMP) [18]: 6.4
B6: ZMK 2-99 (peptide)
peptide: cyclo(PHFF[Dap]AF[dP])
notes: Arg111His SNP in the Dap scaffold; also called c[Pro-His-Phe-Phe-Dap-Ala-Phe-DPro]

IC50 [7]: 28 µM
IC50 [5]: 36 µM
IC50 [8]: 0.134 µM
IC50 [6]: 18 µM
IC50 [9]: 1.02 µM
Fold Diff [10]: 9 fold
Fold Diff [19]: 20 fold
Fold Diff [11]: 70 fold
Fold Diff [12]: 4 fold
Fold Diff [13]: 100 fold
EC50 (cAMP agonist) [14]: > 100 µM
pA2 (Schild analysis, agonist NDP-MSH, cAMP) [14]: 6.5
EC50 (cAMP agonist) [15]: > 100 µM
pA2 (Schild analysis, agonist NDP-MSH, cAMP) [15]: 6.5
EC50 (cAMP agonist) [16]: > 100 µM
pA2 (Schild analysis, agonist NDP-MSH, cAMP) [16]: 7.3
percent maximal stimulatory response at 100 µM (cAMP) [17]: 48%
pA2 (Schild analysis, agonist NDP-MSH, cAMP) [18]: 7.5
B7: ZMK 2-112 (peptide)
peptide: cyclo(PRYF[Dap]AF[dP])
notes: Phe112Tyr SNP in the Dap scaffold; also called c[Pro-Arg-Tyr-Phe-Dap-Ala-Phe-DPro]

IC50 [7]: 10 µM
IC50 [5]: 2.7 µM
IC50 [6]: 8 µM
IC50 [9]: 0.0322 µM
pA2 (Schild analysis, agonist NDP-MSH, cAMP) [14]: 6.1
percent maximal stimulatory response at 100 µM (cAMP) [14]: 27%
EC50 (cAMP agonist) [15]: > 100 µM
pA2 (Schild analysis, agonist NDP-MSH, cAMP) [15]: 6.3
percent maximal stimulatory response at 100 µM (cAMP) [16]: 37%
percent maximal stimulatory response at 100 µM (cAMP) [17]: 79%
pA2 (Schild analysis, agonist NDP-MSH, cAMP) [18]: 7.6
B8: ZMK 2-85 (peptide)
peptide: cyclo(PRFF[Dap]VF[dP])
notes: Ala115Val SNP in the Dap scaffold; also called c[Pro-Arg-Phe-Phe-Dap-Val-Phe-DPro]

EC50 (cAMP agonist) [1]: > 100 µM
pA2 (Schild analysis, agonist NDP-MSH, cAMP) [1]: 7.1
Inverse Agonist, percent decrease from basal (cAMP) [2]: -10%
EC50 (cAMP partial agonist) [4]: 2.7 µM
Partial Agonist, percent of NDP-MSH (cAMP) [4]: 60%
Binder: PRFFXAFP (head-to-tail cyclic; NPhe (N-benzylglycine) at 4; Dap at 5; DPro at 8) [MDE9-93c]

IC50 [6]: 9 µM
B9: 1 (MDE 6-82-3c) (peptide)
peptide: cyclo(PRFFNAF[dP])
modifications: also: assayed as TFA salt
notes: AgRP 111-116 loop cyclized through DPro-Pro; Asn5 parent scaffold; assayed as TFA salt; also called Compound 1; c[Pro-Arg-Phe-Phe-Asn-Ala-Phe-DPro]

IC50 [8]: 6.7 µM
Fold Diff [20]: 300 fold
IC50 [9]: 22 µM
Fold Diff [21]: 300 fold
EC50 (cAMP agonist) [14]: > 100 µM
pA2 (Schild analysis, agonist NDP-MSH, cAMP) [14]: < 5
EC50 (cAMP agonist) [15]: > 100 µM
EC50 (cAMP agonist) [16]: > 100 µM
pA2 (Schild analysis, agonist NDP-MSH, cAMP) [16]: 5.3
percent maximal stimulatory response at 100 µM (cAMP) [17]: 23%
pA2 (Schild analysis, agonist NDP-MSH, cAMP) [18]: 5.8
B10: ZMK 2-96 (peptide)
peptide: cyclo(PHFFNAF[dP])
notes: Arg111His SNP in the Asn scaffold; also called c[Pro-His-Phe-Phe-Asn-Ala-Phe-DPro]

IC50 [8]: 2 µM
Fold Diff [20]: 2000 fold
IC50 [9]: 14.3 µM
Fold Diff [21]: 100 fold
EC50 (cAMP agonist) [14]: > 100 µM
pA2 (Schild analysis, agonist NDP-MSH, cAMP) [14]: 5.8
EC50 (cAMP agonist) [16]: > 100 µM
pA2 (Schild analysis, agonist NDP-MSH, cAMP) [16]: 6.1
EC50 (cAMP agonist) [17]: > 100 µM
pA2 (Schild analysis, agonist NDP-MSH, cAMP) [18]: 6.5
B11: ZMK 2-110 (peptide)
peptide: cyclo(PRYFNAF[dP])
notes: Phe112Tyr SNP in the Asn scaffold; also called c[Pro-Arg-Tyr-Phe-Asn-Ala-Phe-DPro]

EC50 (cAMP agonist) [1]: > 100 µM
pA2 (Schild analysis, agonist NDP-MSH, cAMP) [1]: 6.9
Inverse Agonist, percent decrease from basal (cAMP) [2]: -10%
percent maximal stimulatory response at 100 µM (cAMP) [4]: 60%
Binder: cyclo(PRFF[N(2-Aminoethyl)Gly]AF[dP]) [MDE9-111c]
